The source of these data is patent publication US12583888B2, “Bi-specific extracellular matrix binding peptides and methods of use thereof” (University of Tartu, priority 2019, dated 2026).

No end group written: not given here.

One data set relates to U87-MG cells. As to the kind of experiment: Cell binding and internalization of CF555-labeled AgNPs. It counts as cell-based, human. As to conditions: NRP-1-positive U87-MG, 1 h incubation. The method, then: (§1) U87-MG, PPC1, and M21 cells cultured on glass coverslips were incubated with CF555-labeled AgNPs at 37° C. for 1 hour, followed by washing with medium to remove background AgNPs. Etching solution freshly diluted from 0.2 M stock solutions of Na2S2O3 and K3Fe(CN)6 to 10 mM working concentration in PBS was applied to cells for 3 minutes, followed by PBS washes. The cells on coverslips were fixed with −20° C. methanol for 1 minute. The cell membrane was visualized by staining with Alexa Fluor 488-labeled wheat germ agglutinin (WGA) at 1:1000 at RT for 1 h. […] Fluoromount-G (Electron Microscopy Sciences) medium was used to mount the coverslips on microscope slides for confocal imaging.

The next data set relates to PPC1 cells. The data set is described as above. Format: cell-based. As to conditions: NRP-1-positive PPC1, 1 h incubation. The method, then:
as §1

The next data set concerns U87-MG xenograft. As to the kind of experiment: In vivo fluorescence imaging with the IVIS Spectrum system. Also on record: species or system mice. On the procedure: Live imaging of PL3 peptide tumor homing was assessed by in vivo fluorescence imaging with the IVIS Spectrum imaging system (PerkinElmer, Waltham, MA) in U87-MG xenograft mice model (Male, 18-20 weeks of age). AgNPs with CF647 dye-labeled neutravidin coating was functionalized with biotinylated PL3 peptide (AgNP-PL3) or control biotin (AgNP). AgNP PL3 and AgNP particles were injected intravenously into the mice. For assessment of tumor PL3 targeted delivery and homing by IVIS, mice were placed in a dark imaging chamber under isoflurane anesthesia, and imaged with the following parameters. Specific excitation filter, 650 nm; emission filter, 665 nm; auto exposure time; binning, medium; field of view, 12; f/stop, 2; open filter. The images were captured at pre-injection (0 hours) and five-hour post-injection. The signal was expressed in total Radiant Efficiency [p/s]/[μW/cm^2]. The regions of interest (ROIs) were drawn covering the whole tumor in each mouse after tissue background correction, and radiant efficiency signal was quantitated. An automated spectral unmixing algorithm was used, images were analyzed by using Living Image 4.4 software (Caliper Life Sciences, Hopkinton, MA). Three animals per experimental group were analyzed. For the receptor blocking studies, PL3-AgNP injection was preceded by systemic pre-injection of blocking TNC-C and/or NRP1 antibodies (30 μg/mouse) 15 minutes prior to injection of the AgNPs.

The target of another data set is T1, fibronectin EDB-domain (Homo sapiens, UniProt P02751).
T1 construct: made in house; host or cells: E. coli BL21 Rosetta 2 (DE3) pLysS
T1 sequence (P02751 with tags, fused parts or gaps): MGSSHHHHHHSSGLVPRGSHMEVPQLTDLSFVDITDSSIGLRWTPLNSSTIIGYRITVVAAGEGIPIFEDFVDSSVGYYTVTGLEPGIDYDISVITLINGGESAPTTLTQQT
The experiment in a line: PL3 phage binding to fibronectin EDB-domain. An excerpt:
The recovered phage was tittered and amplified for a subsequent round of selection. […] RPARPAR phage on NRP-1-coated beads was used as a positive control (Teesalu et al., 2009). Phage clones displaying heptaglycine peptide (GGGGGGG, G7 (SEQ ID NO:20)) or insert less phage clones were used as negative controls.

In data set [1] the test system is PC3 prostate carcinoma xenografts. To be noted: i.v. equimolar mix, 2 h circulation. An excerpt: (§2) In vivo play-off was used to evaluate systemic homing of peptide phage to xenograft tumor models. The in vitro selected candidate TNC-C binding peptides, phages displaying published tumor homing peptides, and control peptides were amplified and purified by precipitation with PEG-8000 (Sigma-Aldrich, St. Louis, MO, USA), followed by CsCl2 gradient ultracentrifugation and dialysis. The amplified phage peptides were pooled in equimolar quantities, and injected intravenously (final 1×10^10 pfu in 200 μl PBS) in tumor-bearing mice for two hour circulation, after which mice were anesthetized with 2.5% avertin and intracardially perfused with DMEM intracardially. The tumors and organs were collected in lysogeny broth (LB)+1% NP40, and the tissues were homogenized using a hand-held homogenizer for phage peptide rescue. Phages in the tissue lysates were amplified in E. coli, purified by precipitation with PEG-8000 and DNA was extracted using a DNA extraction kit (High Pure PCR Template Preparation Kit; Roche, Basel, Switzerland). Next-generation sequencing of phage genomic DNA evaluated the representation of each phage in input mixture, in tumor and control organs with Ion Torrent system (Thermo Fisher Scientific, Waltham, MA, USA). The next generation deep sequencing of phage library was done using Ion Torrent according to the manufacturer's protocol with slight modification. The FASTQ data from Ion Torrent was processed by a custom python script that identified the barcodes, constant flanking residues, and extracted the reads of the correct length.

A further data set relates to U87-MG glioblastoma. To be noted: i.v. equimolar mix, 2 h circulation.
From the text: as §2

The next data set deals with P13 tumor. To be noted: i.v. equimolar mix, 2 h circulation.
From the text: as §2

A further data set has as its system P3 stem cell-like tumor. To be noted: i.v. equimolar mix, 2 h circulation.
From the text: as §2

For a further data set, the system named is WT-GBM tumor. To be noted: i.v. equimolar mix, 2 h circulation.
From the text: as §2

For a further data set, the system named is normal brain. As to conditions: i.v. equimolar mix, 2 h circulation.
From the text: as §2

The next data set relates to M21 cells. As to the kind of experiment: Cell binding and internalization of CF555-labeled AgNPs. Format: cell-based. To be noted: NRP-1-negative M21, 1 h incubation. The method, then: as §1

With “PL3-AgNPs: dye-labeled neutravidin-coated silver nanoparticles functionalized with biotinylated PL3 peptide (AGRGRLVR; also: biotinylated, bound to dye-labeled neutravidin-coated silver nanoparticles)”, the cellular uptake result with U87-MG cells and in the data set on PPC1 cells was “robustly endocytosed with perinuclear accumulation” in each case. Besides, in the data set with U87-MG xenograft (5 hours, i.v.), the “accumulation in glioma lesions more than control non-peptide CF647-AgNP” value is approximately 10 fold. Besides, the figures for the “tumor homing on coadministration with blocking antibodies” value in the data set with U87-MG xenograft (cocktail of both antibodies) and in the data set on U87-MG xenograft (rabbit polyclonal antibodies against either TNC-C or NRP-1) were “almost completely inhibited the tumor accumulation” and “decrease in tumor homing”, respectively.
As for AGRGRLVR [PL3], the “binding to fibronectin EDB-domain” value in the data set with fibronectin EDB-domain is “did not bind”. Moreover, the “Representation of phage in tumors (fold G7 control phage), PC3” value in data set [1] was 3.9 fold. Moreover, the “Representation of phage in tumors (fold G7 control phage), U87-MG” value with U87-MG glioblastoma was 2.1 fold. The “Representation of phage in tumors (fold G7 control phage), P13” value with P13 tumor stood at 4.7 fold. Also, in the data set on P3 stem cell-like tumor, the “Representation of phage in tumors (fold G7 control phage), P3 SCL” value turned out to be 2.1 fold. Besides, the “Representation of phage in tumors (fold G7 control phage), WT-GBM” value in the data set with WT-GBM tumor turned out to be 24.1 fold. Besides, in the data set with normal brain, the “Representation of phage in control brain tissue (fold G7 control phage), Norm. brain” value worked out at 0.4 fold. The cellular uptake result in the data set with M21 cells is given as “low background-like uptake”.
